Laboratory results taken from patent EP4538286A1 (Adlai Nortye Biopharma Co., Ltd., dated 2025).
Changes are numbered by the printed parent chain. In names and notes the source's numbering stands.

T1: human CTLA4 protein (human, UniProt P16410 37-162, limits assumed)
T1 construct: bought protein coated on the ELISA plate; also called human CTLA4 antigen
T1 sequence (looked up): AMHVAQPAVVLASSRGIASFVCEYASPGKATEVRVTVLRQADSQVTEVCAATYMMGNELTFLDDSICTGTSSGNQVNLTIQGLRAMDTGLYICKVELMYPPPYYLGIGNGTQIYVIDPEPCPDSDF

B1: Abs-357 (other)
heavy: VIHVTKEVKEVATLSCGHNVSVEELAQTRIYWQKSKKMVLTMMSGDMNIWPEYKNRTIFDITNNLSIVILELRPSDEGTYECVVLKYEKDAFKREHLAEVTLSVKADGGGGSGGGGSGGGGSGGGGSGEVQLLESGGGLVQPGGSLRLSCAASGFTFSSYAMSWVRQAPGKGLEWVSGISGSGGFTYYADSVKGRFTISRDNSKNTLYLQMNSLRAEDTAVYYCAKPPRGYNYGPFDYWGQGTLVTVSSASTKGPSVFPLAPCSRSTSESTAALGCLVKDYFPEPVTVSWNSGALTSGVHTFPAVLQSSGLYSLSSVVTVPSSSLGTKTYTCNVDHKPSNTKVDKRVESKYGPPCPPCPAPEFLGGPSVFLFPPKPKDTLMISRTPEVTCVVVDVSQEDPEVQFNWYVDGVEVHNAKTKPREEQFNSTYRVVSVLAVLHQDWLNGKEYKCKVSNKGLPSSIEKTISKAKGQPREPQVYTLPPSQEEMTKNQVSLTCLVKGFYPSDIAVAWESNGQPENNYKTTPPVLDSDGSFFLYSRLTVDKSRWQEGNVFSCSVMHEALHAHYTQKSLSLSLGK
light: SYVLTQPPSVSVAPGQTARITCGGNNIGSKSVHWYQQKPGQAPVLVVYDDSDRPSGIPERFSGSNSGNTATLTISRVEAGDEADYYCQVWDSSSDHVVFGGGTKLTVLGQPKAAPSVTLFPPSSEELQANKATLVCLISDFYPGAVTVAWKADSSPVKAGVETTTPSKQSNNKYAASSYLSLTPEQWKSHRSYSCQVTHEGSTVEKTVAPTECS
notes: CD80 IgV mutant fused to the N-terminus of the sugemalimab heavy chain; also called CD80 IgV mutant E35S/A71E-sugemalimab fusion
B2: Abs-360 (other)
heavy: B1 heavy with E71T
light: B1 light
notes: CD80 IgV mutant fused to the N-terminus of the sugemalimab heavy chain; also called CD80 IgV mutant E35S/A71T-sugemalimab fusion
B3: Abs-368 (other)
heavy: B1 heavy with S35T, E71T
light: B1 light
notes: the paragraph that names the antibody is followed; also called CD80 IgV mutant E35T/A71T-sugemalimab fusion
B4: Abs-362 (other)
heavy: B1 heavy with S35Q, E71N
light: B1 light
notes: CD80 IgV mutant fused to the N-terminus of the sugemalimab heavy chain; also called CD80 IgV mutant E35Q/A71N-sugemalimab fusion
B5: Abs-365 (other)
heavy: B1 heavy with S35T
light: B1 light
notes: CD80 IgV mutant fused to the N-terminus of the sugemalimab heavy chain; also called CD80 IgV mutant E35T/A71E-sugemalimab fusion
B6: Abs-367 (other)
heavy: B1 heavy with S35T, E71Q
light: B1 light
notes: the paragraph that names the antibody is followed; also called CD80 IgV mutant E35T/A71Q-sugemalimab fusion
B7: Abs-358 (other)
heavy: B1 heavy with E71N
light: B1 light
notes: CD80 IgV mutant fused to the N-terminus of the sugemalimab heavy chain; also called CD80 IgV mutant E35S/A71N-sugemalimab fusion
B8: Abs-364 (other)
heavy: B1 heavy with S35Q, E71T
light: B1 light
notes: CD80 IgV mutant fused to the N-terminus of the sugemalimab heavy chain; also called CD80 IgV mutant E35Q/A71T-sugemalimab fusion
B9: Abs-359 (other)
heavy: B1 heavy with E71Q
light: B1 light
notes: CD80 IgV mutant fused to the N-terminus of the sugemalimab heavy chain; also called CD80 IgV mutant E35S/A71Q-sugemalimab fusion
B10: Abs-361 (other)
heavy: B1 heavy with S35Q
light: B1 light
notes: CD80 IgV mutant fused to the N-terminus of the sugemalimab heavy chain; also called CD80 IgV mutant E35Q/A71E-sugemalimab fusion
B11: Abs-363 (other)
heavy: B1 heavy with S35Q, E71Q
light: B1 light
notes: CD80 IgV mutant fused to the N-terminus of the sugemalimab heavy chain; also called CD80 IgV mutant E35Q/A71Q-sugemalimab fusion

These binders were tested against T2, human CD28 protein (human, UniProt P10747 19-152) (assay: ELISA, plate-coated human CD28).
T2 construct: bought protein coated on the ELISA plate; also called human CD28 antigen
Parameters: binding strength @ 100nM: reference not given here

T2 sequence (P10747 19-152 limits assumed): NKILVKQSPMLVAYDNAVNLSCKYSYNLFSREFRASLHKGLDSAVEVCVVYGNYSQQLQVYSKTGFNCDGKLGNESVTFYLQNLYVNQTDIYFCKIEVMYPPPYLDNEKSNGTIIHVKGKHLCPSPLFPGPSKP

Binder | EC50 | binding strength @ 100nM | binding result
B1 | 26 nM | 585% | 
B2 | 25.9 nM | 933% | 
B3 | 28.7 nM | 700% | 
B4 | 26.1 nM | 1100% | 
B5 | 27.9 nM | 857% | 
B6 | 27.7 nM | 700% | 
B7 |  |  | no binding
B8 | 27.6 nM | 785% | 
B9 | 21.1 nM | 450% | 
B10 |  |  | no binding
B11 |  |  | no binding

What follows are binders tested against T1, human CTLA4 protein (assay: ELISA, plate-coated human CTLA4).

Binder | EC50 | binding strength @ 20nM | binding result
B1 | 17.8 nM | 1830% | 
B2 | 26.7 nM | 316% | 
B3 |  |  | no binding
B4 | 8.39 nM | 3180% | 
B5 | 24.7 nM | 400% | 
B6 | 26.5 nM | 640% | 
B7 |  |  | no binding
B8 | 5.45 nM | 3130% | 
B9 | 26.4 nM | 766% | 
B10 |  |  | no binding
B11 |  |  | no binding

Each binder was assayed against PD-L1 on TCR activator PD-L1-CHO cells (UniProt Q9NZQ7 19-290, limits assumed) (assay: cell-based or functional assay).
Sequence of PD-L1 on TCR activator PD-L1-CHO cells (Q9NZQ7 19-290 limits assumed): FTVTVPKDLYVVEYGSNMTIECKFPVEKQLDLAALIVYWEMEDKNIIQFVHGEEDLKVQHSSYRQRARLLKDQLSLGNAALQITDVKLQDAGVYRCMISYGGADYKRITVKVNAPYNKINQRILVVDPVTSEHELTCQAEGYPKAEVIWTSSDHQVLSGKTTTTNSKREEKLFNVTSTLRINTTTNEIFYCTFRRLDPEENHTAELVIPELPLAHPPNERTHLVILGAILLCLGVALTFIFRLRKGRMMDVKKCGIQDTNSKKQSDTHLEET

Binder | EC50(nM), Jurkat-NFAT-Luc/CHO-PDL1 | The highest induction relative to 10 nM sugemalimab
B1 | 1 nM | 238%
B2 | 0.82 nM | 64%
B3 | 0.52 nM | 138%
B4 | 0.58 nM | 337%
B5 | 2.75 nM | 129%
B6 | 1.84 nM | 113%
B7 | 1.1 nM | 277%
B8 | 1.06 nM | 150%
B9 | 0.88 nM | 42%
B10 | 1.13 nM | 334%
B11 | 1 nM | 121%
